This note sets out measurements from the supplement of paper PMC7877785.

This data set is described as follows: self-splicing fitness, log relative to wild type (ln ratio); higher = more splicing; Tetrahymena group I intron in knt gene, E. coli kanamycin selection, DiMSum; sequences stand for … in CUCUCU…GGAGGGAAAAGUUAUCAGGCAUGCACCUGGUAGCUAGUCUUUAAACCAAUAGAUUGCAUCGGUUUAAAAGGCAAGACCGUCAAAUUGCGGGAAAGGGGUCAACAGCCGUUCAGUACCAAGUCUCAGGGGAAACUUUGAGAUGGCCUUGCAAAGGGUAUGGUAAUAAGCUGACGGACAUGGUCCUAACCACGCAGCCAAGUCCUAAGUCAACAGAUCUUCUGUUGAUAUGGAUGCAGUUCACAGACUAAAUGUCGGUCGGGGAAGAUGUAUUCUUCUCAUAAGAUAUAGUCGGACCUCUCCUUAAUGGGAGCUAGCGGAUGAAGUGAUGCAACACUGGAGCCGCUGGGAACUAAUUUGUAUGCGAAAGUAUAUUGAUUAGUUUUGGAGUACUCGUGGUCG
In short, it runs like this:
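The eight P1ex-region nucleotides of an intron in the knt kanamycin-resistance gene on pET-22b(+) were all randomised and the library put into E. coli BL21(DE3). Six replicate transformations were grown overnight at 37°C or 30°C on LB agar with or without 25 μg/mL kanamycin, together with 100 μg/mL carbenicillin, 50 μM IPTG and 0.2% rhamnose. Colonies were pooled and amplicon-sequenced on an Illumina HiSeq 2500. Fitness from DiMSum is the error-weighted combination of wild-type-normalised replicate fold changes, kanamycin over none.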

± gives the uncertainty stated by the source.

For GGACAGCAAUAUUACGGCGG, the “self-splicing fitness (ln)” value by setting is: (30 °C) -2.64 ± 0.13; (37 °C) -1.52 ± 0.13.
The matching figures for CACAAGCAAUAUUACGUGGG: -3.94 ± 0.16 and -2.42 ± 0.12.
In the case of CGGAAGCAAUAUUACGCGAG, the “self-splicing fitness (ln)” value runs as follows: (30 °C) -1.19 ± 0.15; (37 °C) -1.24 ± 0.27.
The matching figures for AUGAAGCAAUAUUACGUAAG: -1.05 ± 0.057 and -0.409 ± 0.083.
For the sequence AACCAGCAAUAUUACGUCUG, the “self-splicing fitness (ln)” value reads like this: (30 °C) -3.9 ± 0.17; (37 °C) -2.54 ± 0.16.
As to GGAGAGCAAUAUUACGGUUG, the “self-splicing fitness (ln)” value is, setting by setting: (30 °C) -2.38 ± 0.22; (37 °C) -2.05 ± 0.38.
The matching figures for GAUAAGCAAUAUUACGAUAA: -1.46 ± 0.13 and 0.344 ± 0.13.
AGCCAGCAAUAUUACGCGCA: the “self-splicing fitness (ln)” value was -0.445 ± 0.061 (30 °C) and 0.255 ± 0.074 (37 °C).
On the same counts, the results for UAGUAGCAAUAUUACGUACC are -2.29 ± 0.37 and -1.21 ± 0.27.
In the case of AUCAAGCAAUAUUACGCGUC, the “self-splicing fitness (ln)” value was -3.45 ± 0.23 (30 °C) and -1.41 ± 0.16 (37 °C).
On the same counts, the results for AUAGAGCAAUAUUACGAAUA are -4.03 ± 0.47 and -2.1 ± 0.29.
Regarding CCCUAGCAAUAUUACGUAUG, the “self-splicing fitness (ln)” value is, setting by setting: (30 °C) -3.75 ± 0.2; (37 °C) -3.63 ± 0.3.
For the sequence GUCUAGCAAUAUUACGGUCU, the “self-splicing fitness (ln)” value reads like this: (30 °C) -2.19 ± 0.17; (37 °C) -0.272 ± 0.16.
The matching figures for AGGUAGCAAUAUUACGGUUU: -0.613 ± 0.012 and -0.252 ± 0.033.
In the case of UACUAGCAAUAUUACGGUCC, the “self-splicing fitness (ln)” value (30 °C) is -1.59 ± 0.14 and the “self-splicing fitness (ln)” value (37 °C) is -0.676 ± 0.16.
In the case of GUGUAGCAAUAUUACGUGCU, the “self-splicing fitness (ln)” value is -1.44 ± 0.11 (30 °C) and -1.09 ± 0.13 (37 °C).
The matching figures for GGAGAGCAAUAUUACGCGUG: -3.84 ± 0.33 and -2.53 ± 0.18.
For the sequence AAAAAGCAAUAUUACGGCUA, the “self-splicing fitness (ln)” value reads like this: (30 °C) -0.166 ± 0.089; (37 °C) 0.116 ± 0.11.
Consider CGGCAGCAAUAUUACGCCAA, for which the “self-splicing fitness (ln)” value is -1.61 ± 0.15 (30 °C) and -0.921 ± 0.13 (37 °C).
On to UUACAGCAAUAUUACGUGAC, for which the “self-splicing fitness (ln)” value is -3.7 ± 0.21 (30 °C) and -1.81 ± 0.16 (37 °C).
For the sequence CAAGAGCAAUAUUACGACUU, the “self-splicing fitness (ln)” value reads like this: (30 °C) -2.96 ± 0.12; (37 °C) -1.46 ± 0.12.
Turning to GGGUAGCAAUAUUACGUCUG, the “self-splicing fitness (ln)” value reads like this: (30 °C) -1.21 ± 0.12; (37 °C) -1.15 ± 0.14.
As to GGAGAGCAAUAUUACGGCAA, the “self-splicing fitness (ln)” value was -2.75 ± 0.47 (30 °C) and -1.59 ± 0.43 (37 °C).
For CGCAAGCAAUAUUACGCAUA, the “self-splicing fitness (ln)” value was -3.81 ± 0.3 (30 °C) and -0.539 ± 0.15 (37 °C).
The matching figures for ACGUAGCAAUAUUACGAGUG: -2.54 ± 0.2 and -1.43 ± 0.15.
The matching figures for CCUAAGCAAUAUUACGAGGG: -3.2 ± 0.17 and -3 ± 0.35.
Turning to AUGGAGCAAUAUUACGCCAA, the “self-splicing fitness (ln)” value is, setting by setting: (30 °C) -1.45 ± 0.44; (37 °C) -1.03 ± 0.38.
For AAAUAGCAAUAUUACGGCAA, the “self-splicing fitness (ln)” value (30 °C) is -0.542 ± 0.071 and the “self-splicing fitness (ln)” value (37 °C) is 0.146 ± 0.075.
For ACUCAGCAAUAUUACGCUUC, the “self-splicing fitness (ln)” value by setting is: (30 °C) -2.3 ± 0.094; (37 °C) -1.48 ± 0.12.
The matching figures for AUUGAGCAAUAUUACGUUCU: -2.53 ± 0.14 and -1.22 ± 0.15.
With GACUAGCAAUAUUACGACCC, the “self-splicing fitness (ln)” value (30 °C) amounted to 0.42 ± 0.14 and the “self-splicing fitness (ln)” value (37 °C) came out at 0.392 ± 0.18.
For the sequence CGAUAGCAAUAUUACGCCUG, the “self-splicing fitness (ln)” value was -0.681 ± 0.15 (30 °C) and 0.308 ± 0.11 (37 °C).
As to UACAAGCAAUAUUACGGGUU, the “self-splicing fitness (ln)” value is -2.8 ± 0.091 (30 °C) and -1.63 ± 0.097 (37 °C).
In the case of UGUUAGCAAUAUUACGCUUG, the “self-splicing fitness (ln)” value is, setting by setting: (30 °C) -2.03 ± 0.14; (37 °C) -0.556 ± 0.12.
For CUCCAGCAAUAUUACGAGGU, the “self-splicing fitness (ln)” value reads like this: (30 °C) -4.41 ± 0.31; (37 °C) -3.07 ± 0.24.
Take GGUCAGCAAUAUUACGUGAU: the “self-splicing fitness (ln)” value by setting is: (30 °C) -3.88 ± 0.22; (37 °C) -2.14 ± 0.11.
Regarding AUAAAGCAAUAUUACGGGAA, the “self-splicing fitness (ln)” value runs as follows: (30 °C) -1.08 ± 0.097; (37 °C) -0.426 ± 0.14.
